Measurements as given in the DeepSol protein solubility set.

Experiment: soluble on expression in E. coli; label from the status in PepcDB or PDB records

Sequence	soluble on expression in E. coli
MKPHALIGLLAGMLLSSSLYAADSTKPLPLHIGGRVLVESPANQPVSYTYSWPAVYFETAFKGQSLTLKFDDDQNIFRLIVDDKAPVVINKPGKVDYPVESLAPGKHRVRLEKLTETQSTSGRFLGFYTDPSAKPLALPKRKRQIEFIGDSFTVGYGNTSPSRECTDEELFKTTNSQMAFGPLTAKAFDADYQINASSGFGIVRNYNGTSPDKSLLSLYPYTLNNPDQLYHNKHWKPQVIVIGLGTNDFSTALNDNERWKTREALHADYVANYVKFVKQLHSNNARAQFILMNSDQSNGEIAEQVGKVVAQLKGGGLHQVEQIVFKGLDYSGCHWHPSANDDQLLANLLITHLQQKKGIWLEHHHH	soluble
MKPLRSPWVMRALARFFSGYIALTYKTLRWTREGQAIADRVQAEALASGGGAILALWHSRVPVGPATWPQGPDKPEIRVLVSQSRDGEFIARVIARLGLPSIRGSSLKKTDTAKNKGGEQAFRDMVKWVKDGGAMAITPDGPRGPVEVMQKGAVALARVSGAPVLFVGVAVNPCIRLKTWDRTIIPLPFAKAAMVWDGPVHAGRDDDPDAVVEAWGARLSAVSRRAEAIVGETPPKDLEHHHHHH	not soluble
MKPMSDYDIPTTENLYFQGAMVTTPGKPNDPDNPNNNYIKPTKVNKNKEGLNIDGKEVLAGSTNYYELTWDLDQYKGDKSSKEAIQNGFYYVDDYPEEALDVRPDLVKVADEKGNQVSGVSVQQYDSLEAAPKKVQDLLKKANITVKGAFQLFSADNPEEFYKQYVATGTSLVITDPMTVKSEFGKTGGKYENKAYQIDFGNGYATEVVVNNVPKITPKKDVTVSLDPTSENLDGQTVQLYQTFNYRLIGGLIPQNHSEELEDYSFVDDYDQAGDQYTGNYKTFSSLNLTMKDGSVIKAGTDLTSQTTAETDATNGIVTVRFKEDFLQKISLDSPFQAETYLQMRRIAIGTFENTYVNTVNKVAYASNTVRTTT	soluble
MKPNLLPMNLQMFAEEDGGTNFTFDDFKAFVESNEEAQKFVQSQSQSAADKQLEAWKQNNLEKIKETTIKEYEESKKNKTPEQIKLEELQAEFEAEKALRVTSDNKAFVAEKIAGLDWDGDLKDSISQFMLNNLVSSDTEFTKKAVEGFTELLEAINDKHAEAIKNVEMTKAFGNKSQQTNMGTGNQTKSFENPEVALGQKLQAFID	not soluble
MKPVQLTVDNIAKAIFTVNRHAKTALNPSFLYLLKKKAIEKLLEEGKAKKVGLHFSRNPKYSQQQSDVLVAVGDYYFHIPPTKQDFAALPHLGSLNDSYRNPPARMPLSEAKAILIAYTGLREKPEQKPKRLTRPVFKRLGDRY	not soluble
MKQFVVISGKGGTGKTSVTAGLAAVGKDMVLADCDVDAADLHLVLAPEIRERHDFISGVVASIEPEACISCGLCTTHCRYGAIPQGYAPQVAPEHCEGCGVCAHVCPTGAARLSDRRCGEWYVSDTRFGPMVHAALGIGEENSGKLVSTVRTRARELAEARDASVVLIDGSPGVGCPVIASLAGADAALAVTEPTVSALHDLERVHALARHFDVRMAVLLNKADIHPGMAERIIGYCTTHDLPLVGRFGFSPLFVQAQLEGRTLPEQDSGEWRQRFNGVWNQLLALVLEHHHHHH	not soluble
MKQTNPFVYSNDNKRYHTWNYCLREEFGQKTYKVALDGGFDCPNRDGTVAHGGCTFCSAAGSGDFAGNRALDLKVQFQQVRDKMQTKWKDGKCIAYFQAFTNTHAPVAELREKFETVLNEPGVVGLSIATRPDCLPDDVVEYLAELNERTYLWLELGLQSAHDETGRLINRAHDYDCYLEGVRKLQKHNIRICTHIINGLPKETPEMMMETAQKVVESGVDGIKIHLLHLLKGTPMVEDYKKGDLEFLTRDGYVNLVADQLEILPPEMVIHRITGDGGVDDLIGPVWSLNKFEVLNAIDAELVRRDSWQGKLYQPVEVSSK	not soluble
MKRAPFLCKQSPDRTLEVVILAGSLAWETSRVWRKDPDREDDVPPMVLGPNELADLSNLTIIRPDTLYVRVLRTGDISEEDLLKIAVKLAHAGVQMARLMSPDGELLENWTGQLERLRQERPSDILPDHFRLDEEALWFDKLTERRDGESDVQPQRICSPLRVTAITCDSHDGSYGRLLEWHTTTGQLRRWAMPMAMLSGNGEELRRILLENGLTNISTRPALRSLLCEYISRSLPGRRVTCVEKTGWHNGVYVLPDEVIGPDGDNVILQGSHYLTGGFAQAGTLAEWQEQVAALCAGNSRLVFAVCCALAAPLLRLTGTGGGGFHLRGESTDGKTTVMKVAASVCGGTDYWHSWRATGNALEGIASRHNDALLPLDELREVDPREAGMIAYMLANGQGKGRARTDGEVRNRRHWTLLLEHHHHHH	not soluble
MKRGYVLHHRPYRESSALVNLLVDGIGRVDAVARVGSGKRSIKSILQPFQPLIFEFSGKSELKNISQIEAAAPAVPLSGYSLYAGMYINELLMRTLSVQHNAEALFFIYHQALVGLAAQFCESKLRYLELALLRELGAMPSLIRDTQGEPLIPEHCYQLVPELGFQFVLNSRAKHTYQGAMLTALNDNQLLQEQFLEAKRLMRSMLQPLLGNKPLVSRQLFIQAAASKVDGNN	not soluble
MKRHFRPSLIKTEAWEGYEFADKEIKITESTDCYGAVLWPSAMVLCHFLDSHRDQYNLLDKKIIELGAGTGLVTIVTSLLGAQVTSTDLPDVLANLRHNVNRNTRGRCRHEPQVTELIWGQQLEERFPRYTCQYDYILAADVVYGHPYLQELLETFIHLCSDHTVILWAMRFRLDPENRFVHTFQEHFHLEELYDLPSLSIKLYRAHKR	not soluble
MKRHIAMAAGALALALGAQAAHAGPTLDAVKKKGFVQCGLTDGVAGFSATNSKGEWEGMDVDICRAVAAAVFGDAGKFKGTALSTQQRFTALQSGEVDVLLRTVTLTQTRDTSLGLAAVAASFYDGQGVLVRKALGVKSAKELDEATICVQPGTTTELNLADWFRANGIKFTPVVIDKVTEVVRAFESGRCDAFTDDASQLAAVRATQVAKPDDFEILPERFSKEPLGPMVRQGDENWLGIVRWTLFALMEAEEYGITQQNVDEMLKSKNPNVLRILGVTPGAGKNMGLDEKWAYNAIKAVGNYSQIFERNVGKDSRLGLQRGVNALWSQGGAMYPWPIR	not soluble
MKRIGVVLGRREATPLEFWVGVEGDGLLRLDDLVVVEGFHPQVGQVRFFGMVDHVAKVHEGESFDTDTFLAVEGKIPVSLAYVAHVSVTRILPEEFFPPDPGSPVYLAQEEDLELALYYDAMRNQRGSTKLPAGLLKNGEVAYLNLEFLNGVKGGHVNISGISGVAAKTSYATFLLKSLLESGVLEDAHQARVLLFNVKGEDLFFLDKPNARLTEEARKAYARLGLPATPFQSVAFLAPPKKAGYLPDVDTRLEGVEAYHWDLVQFCQRGLLPFLFADRAAMTNLGFLVAHVTEKLKRLAEGQKGPHLQVEDWPGGEASEGMSFDQLGKARLKSFSDLVRYLEYKLLGPETGEGEGDRGWTARQAKGTLEAFVRRLRSSVENVAHLVRGDRPGSPPDPLSGKAQVHVVDLAKLSPQAQMFVVGSLLKDLFERKERGQYRGRVFIVLDELNKYAPREEESPIKDVLLDIAERGRSLGVILIGAQQTASEVERRVVGNAAIRVVGRLDAAEAERPEYRYLPTSFRQRALILPQGAVILHQPEIPVPLLVHFPFPAWATKREEVLEDNSAEALRREFFR	soluble
MKRLADVKISTLDLVPVRHDKGPADSLRNSLNLAQHVEKLGYNRFWVAEHHNMDGIASSATSVLLAYLAGGTSTIRVGAGGIMLPNHAPLVVAEQFGTLASLYPGRIDLGLGRAPGSDQMTARALRRERSGSAEDFPDDVTELMEYLGPRTPDQKVIAVPGSDTNVPIWLLGSSLFSAQLAGMRGLPYAFASHFAPRYMHEAIRVYRNHFQPSAVLDKPYVMLGVPLSAADTDEHAEYLATSVYQRILALMRGHSLMQRPPVESMDGLWLPHEREAVASFLGLAMVGGPDKIRAKLDVLLEQTDADELIFTCDMYEHEDRLRSYEILAQVAQG	not soluble
MKRLLLLGGIGEALALARRLGPAHLYSLAGLGKVPGDLACRVRVGGYGGAEGLAAFIDEQGFDLLVDATHPYAARISQNAVRAARLAGVPCWALRRPGWQAGPGDDWREVADWRELIAALTPFRRPLFTLGREPLEHLGQVPPHQHWTVRCLQGQPAAPRAEVIGARGPFSLDGERALFERLACDVLVSKNSGSQATEPKLQVAREMGLPVLVLARPALPPADREFADGEALLTAIRDWESA	not soluble
MKRLRNKMTTEELAECLGVAKQTVNRWIREKGWKTEKFPGVKGGRARLILVDTQVCEFIQNTPAFHNTPMLMEAEERIAEYAPGARAPAYRQIINAIDNMTDIEQEKVAQFLSREGIRNFLARLDIDESA	not soluble
MKRLRSKMTTEELAECLGVARQTVNRWIREQHWKTEKFPGVKGGRARLIHIDASVREFILNIPAFRKLPAFYQAEEAFAEYANAAHSHAYRQIIDAVENMSAQEQEKLALFLSREGIRGFLTRLGINEAD	not soluble
MKRQRLVDKEWILQFPIEYFIHKEVHELNSTQAQRLVSLFKNGCETAYIARYRGDVHGYLAPEKIRKAMEAYVDAKNLNNKVSSAISTVTAKVAGAQEKIIVTERFKRCEEFDEVTDISKEYSTGTRKTKANIARALGLEPPAQSILDGNFVDFKSLLSNGLKTVKDVEEHLKICLADLINRDEEVRKVSANIDILKKECRVSAKLSREAEKNRKDLEKRGIIEKYKNFIGEKWNAEDIRDHTVSALNKGFDEGIITWKIECEFNDAKYIHPFSRKSVYFGMKNFYQEALAYSIKNYFIPRIERKMANHLKDKAKDRSIVLFGENVDQLLSQEGIRDKFVIALDPGRSKIKTAFLKPTGEVVDMSSFSIYGTRFDGGGVDLLKKWSQQTERKDIVFAIGNGTNTYNTQIAVSDMINSNVFPKEINVSYCIVPEHGASKYSCTPSAIEEFGENAEITEISAVSIGRRLIDPMSEYVKIEPQHLGKGQYQLSVDPKKLNESLLNVVRDRVSFNGVDLNTASKNLLQRINGLNEKTAKEIVQYREQNGRFRSRAELKEVKGIGALTFQQCAGFLTVSRPDDAEDGPPKKKFKKSSTSKEWNPFDETIVHPDDYRTGESLLGKLNVSIEDITGRIKSFSISRLTAEEAKVLNLLQNLTLKTKMKPPPPLRTKVGQIRDLAEGQRFTGTVSNKTDFGVFIDIGVGQDGLAHISHFKDGHYSLMLPSVNDSVEVVIDKIREDGKISLSPVY	not soluble
MKRRCVFMRLSLLDYVPLFEGRTPNDALKHSIKLAQHAEKLGYLRYWVAEHHQVYSVVSSAPEIIMMSILEHTQHIRVGSGGVMLPHYSPYKVAEQFKIMEARHPQRIDMAIGRSPSFKNVNAALNENKNEKLPFNTQITDLLKYFNNDTTQDHRFKSLLATPMVTSFPQLYILGMSNRSAKLAAQRGLPFVIARMGQSETDLHEAISTYRKYFKAYHGEINNAKPYVILATFVVTASNLSRVKQLLHTLQLWLMRINYLNQPKSYPSIETAQNKHYSQRELEKLEKMKSKIIYGMPNDVAEQLTLLHQQFKVDEIIILPHVFGEDARMELIELIANELIPSCSRDEF	not soluble
MKRRDILKGGLAAGALALLPRGHTQGALQNQPSLGRRYRNLIVFVYDGFSWEDYAIAQAYARRRQGRVLALERLLARYPNGLINTYSLTSYVTESSAAGNAFSCGVKTVNGGLAIHADGTPLKPFFAAAKEAGKAVGLVTTTTVTHATPASFVISNPDRNAEERIAEQYLEFGAEVYLGGGDRFFNPARRKDGKDLYAAFAAKGYGVVRTPEELVRSNATRLLGVFADGHVPYEIDRRFQGLGVPSLKEMVQAALPRLAAHRGGFVLQVEAGRIDHANHLNDAGATLWDVLAADEVLELLTAFVDRNPDTLLIVVSDHATGVGGLYGAGRSYLESSQGVDLLEPQRASFEHMLRVLGQAPEASQVKEAFRAMKGVDLEDAEAERVVRAIREKVYWPEGVRQGVQPANTMAWAMVQRDAQKPDRPNIGWSSGQHTASPVMLLLYGQGLRFVNLGLVDNTHVFRLMGEALGLRYQNPVMSEEEALEILKARPQGMRHPEDVWA	soluble
